Literature values in PMC12892997.

How the values were obtained:
[1] = biological target: SARS-CoV-2 spike protein RBD (Severe acute respiratory syndrome coronavirus 2) (UniProt P0DTC2)
[2] = biological target: SARS-CoV-2 spike protein (Severe acute respiratory syndrome coronavirus 2) (UniProt P0DTC2)

Sequence of GRP78 (P11021 19-654): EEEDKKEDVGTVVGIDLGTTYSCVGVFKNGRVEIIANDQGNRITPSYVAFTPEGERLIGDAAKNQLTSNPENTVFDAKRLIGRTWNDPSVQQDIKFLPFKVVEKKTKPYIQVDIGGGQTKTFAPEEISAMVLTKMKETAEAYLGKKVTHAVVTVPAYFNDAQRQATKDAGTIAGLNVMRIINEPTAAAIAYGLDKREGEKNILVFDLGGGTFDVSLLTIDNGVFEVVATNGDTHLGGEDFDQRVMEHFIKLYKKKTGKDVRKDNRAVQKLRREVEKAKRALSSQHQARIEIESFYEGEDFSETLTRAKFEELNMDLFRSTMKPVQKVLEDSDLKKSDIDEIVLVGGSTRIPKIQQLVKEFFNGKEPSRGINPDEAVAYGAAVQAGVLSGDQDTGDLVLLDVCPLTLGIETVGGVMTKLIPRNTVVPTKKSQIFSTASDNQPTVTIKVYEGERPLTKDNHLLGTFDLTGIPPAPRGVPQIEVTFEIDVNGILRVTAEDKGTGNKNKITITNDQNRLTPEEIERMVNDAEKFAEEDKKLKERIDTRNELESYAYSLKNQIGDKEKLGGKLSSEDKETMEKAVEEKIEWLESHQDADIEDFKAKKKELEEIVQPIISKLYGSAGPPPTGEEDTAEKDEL

Row | Substance | Kd [1] | Kd [2]
1 | CD4 N-terminal domain (from UniProt P01730) | 24.5 nM | 
2 | GRP78 (from UniProt P11021) |  | 55.2 nM
